Patent publication US20070167369A1, “Novel use of isolated polypeptide comprising four FAS-1 domains, EM1 domain and RGD motif” (KYUNGPOOK NATIONAL UNIVERSITY INDUSTRY-ACADEMIC COOPERATION …, priority 2004, published 2007)

Columns and labels:
[1] = test system: FAK-Raf-ERK/AKT signal transduction pathway; assay: Western blot of phosphorylation of FAK-Raf-ERK/AKT pathway enzymes in HUVECs (Example 12); format: cell-based, human; settings: 20 μM
Description: To examine the inhibitory mechanism of the fas-1 domain against endothelial cell proliferation and migration, the amount and activity of enzymes related to a FAK-Raf-ERK/AKT signal transduction pathway that is a typical signal transduction pathway in cells was determined by Western blot analysis on HUVECs treated with the fas-1 domain. Since the signal transduction-related proteins undergo phosphorylation during their activation process, the amount of phosphorylated proteins can be measured to predict their activity.
HUVECs were spread onto a 100-mm plate with 10% FBS-containing M199 medium, and incubated in an incubator at 37° C. for 12 hours. Following this, the culture medium was replaced with fresh medium containing 0.1% FBS and then further incubated for 24 hours. After removing the medium, the cells were washed one time with PBS buffer. The cells were detached from the plate by treatment with Trypsin-EDTA solution. The cells were suspended in 10% FBS-containing medium. Fas-1 protein was added to the cell suspension at final concentration of 20 μM. A control was added with PBS buffer. Thereafter, 3 ml of the cell mixture was taken and spread onto a plate coated with collagen. After 30 minutes, 60 minutes and 90 minutes, respectively, the medium was removed from the plate, and the cells were washed one time with PBS buffer. The cells were added with 200 μl of cell lysis buffer and left to stand on ice. The cell lysate was centrifuged at 12,000 rpm for 10 minutes at 4° C., and the supernatant containing a soluble protein was collected. Next, to quantify the concentration of the protein, a Bradford assay (BioRad, Hercules, Calif.) was performed using BSA as the standard protein. 30 μg of each of the sample proteins was electrophoresed on 10% SDS-polyacrylamide gel. The protein on the gel was transferred onto a nitrocellulose membrane, using electrophoresis. The protein transferred to the membrane was reacted with 5% skimmed milk for one hour to block nonspecific protein binding. Following this, it was reacted with the following various antibodies to signal transduction proteins: FAK (BD Science, Franklin Lakes, N.J., USA), pFAK (phosphorylated FAK; Santa Cruz Co., CA, USA), ERK (Sanca Cruz Co., CA, USA), pERK (phosphorylated ERK; Santa Cruz Co., CA, USA), AKT (Cell Signaling Technology Co., Beverly, Mass.), pAKT (phosphorylated AKT; Cell Signaling Technology Co., Beverly, Mass.), Raf1 (Santa Cruz Co., CA, USA) and pRaf1 (phosphorylated Raf1, Santa Cruz Co., CA, USA). The antibodies had been diluted in TBST (50 mM Tris-HCl, pH 7.6, 150 mM NaCl, 0.1% Tween 20) before use. The binding reaction with the antibodies was performed for at least 12 hours in a refrigeration condition. After completion of the reaction, the membrane was washed three times with TBST solution. Thereafter, the membrane was added with HRP-conjugated secondary antibodies (HRP-conjugated-anti-mouse IgG and HRP-conjugated-anti-rabbit IgG; Santa Cruz Co., CA, USA), and a binding reaction with the secondary antibodies was performed at room temperature for one hour. Next, the membrane was washed three times, and then added with 1 ml of ECL as chemiluminescent solution, so that sites where antigen-antibody reaction occurred were visualized by fluorescence. The membrane was exposed to an X-ray film.

HUVECs = assay: Inhibition of βig-h3-mediated endothelial cell adhesion (Example 4-1); format: cell-based, human
Description: HUVECs were suspended in medium at a density of 3×10^5 cells/ml, and 0.1 ml of the cell suspension was added with the fourth fas-1 domain of βig-h3 (βig-h3 D-IV) prepared in Example 1, at concentrations of 5 μM, 10 μM and 20 μM, respectively, and preincubated at 37° C. for 30 minutes. The preincubated cells were added to each well of the 96-well plate precoated with a recombinant βig-h3 His-1-b protein. Then, the cells were tested in the same manner as in Example 2. A control was treated with 2% BSA.

β3/HEK293 cells = assay: Apoptosis by annexin V staining, β3/HEK293 cells expressing αvβ3 integrin (Example 8); format: cell-based; settings: annexin V FACS
Description: To identify an integrin that mediates the induction of endothelial cell apoptosis by the fas-1 domain, the present inventors performed a test using HEK293 cells (β3/HEK293 and β5/HEK293) which had been transfected such as to express αvβ3 integrin or αvβ5 integrin.
For this purpose, a β3/HEK293 cell that expresses αvβ3 integrin was prepared in the following manner. In order to construct a human β3 integrin expression vector, RT-PCR using human placenta poly(A)^+ RNA as a template was first performed to produce 2.4-kb β3 cDNA (Chandrika, S. K. et al., J. Biol. Chem., 272:16390-16397, 1997). The amplified β3 cDNA was digested with HindIII/XbaI, and then cloned into a pcDNA3 vector (Invitrogen). The resulting vector was named “β3/pcDNA3”. Thereafter, 1 μg of the β3/pcDNA3 vector was introduced into HEK293 cells (ATCC, catalog No. CRL 1573) by lipofectamin (Gibco). As the vector contains a G418 selection marker, a stable transfected cell was screened using 1 mg/ml of G418. The cell transfected with the β3/pcDNA3 vector was named “β3/HEK293”.
pc/HEK293 cells, β3/HEK293 cells and β5/HEK293 cells were stained with annexin V to identify an integrin that mediates the induction of endothelial cell apoptosis by the fas-1 domain. Each of the cells was suspended in medium at a density of 5×10^5 cells/ml, added to each well of 6-well plated and incubated at 37° C. overnight. […]

[2] = collagen-coated plate, 30, 60, 90 minutes

B1: fas-1 domain: recombinant protein containing the fourth fas-1 domain of human βig-h3 (SEQ ID NO: 64) (protein, listed as Homo sapiens)
chain: MGTVMDVLKGDNRFSMLVAAIQSAGLTETLNREGVYTVFAPTNEAFRALPPRERSRLLGDAKELANILKYHIGDEILVSGGIGALVRLKSLQGDKLEVSLKNNVVSVNKEPVAEPDIMATNGVVHVITNVL
absolute amounts of FAK, Raf1, ERK and AKT enzymes in the cells vs control [1]: not significantly different
phosphorylation of AKT [1, 2]: greatly reduced as compared to that of the control
phosphorylation of ERK [1, 2]: no increase in phosphorylation until 90 minutes
phosphorylation of FAK [1, 2]: reduced as compared to the control
phosphorylation of Raf1 [1, 2]: greatly reduced as compared to that of the control
inhibition of βig-h3-mediated adhesion of endothelial cells (HUVECs; 5 μM): inhibited
inhibitory effect of endothelial cell adhesion compared with YH motif-containing peptide fragment of 18 amino acids (HUVECs; 20 μM fas-1 domain vs 1,000 μM YH peptide): higher
inhibition of βig-h3-mediated adhesion of endothelial cells (HUVECs; 5, 10 and 20 μM): inhibited in a dose-dependent manner
induction of apoptosis of β3/HEK293 cells (β3/HEK293 cells): induced by the fas-1 domain in a dose-dependent manner
